What was measured:
[1] = biological target: HIV-1 capsid CAN (Human immunodeficiency virus 1) (UniProt O93182); settings: cited from earlier work
[2] = biological target: HIV-1 M-group (NL4-3) N-terminal capsid domain (HIV-1 M-group (NL4-3))
[3] = biological target: HIV-1 M-group (NL4-3) N-terminal capsid domain (HIV-1 M-group (NL4-3)); assay: ITC; MicroCal ITC200, 15°C, 50 mM potassium phosphate pH 7.4, 100 mM NaCl, 1 mM DTT; NUP358Cyp (typical 2.5 mM) in the syringe, capsid domain (typical 0.2 mM) in the cell; one set of binding sites model
[4] = biological target: HIV-1 M-group (NL4-3) N-terminal capsid domain; assay: ITC

| Substance | Kd [1] [µM] | rate of cis-trans isomerization of the capsid G89-P90 bond catalysed by NUP358Cyp (NMR ZZ-exchange; 430 μM CA^N, 35 μM NUP358Cyp, 298 K) [2] [s⁻¹] | Kd [3] [µM] | other: N (stoichiometry) [4] | other: ΔH [4] [kcal/mol] | other: ΔS ((cal/mol)/deg) [4] |
| --- | --- | --- | --- | --- | --- | --- |
| NUP358 Cyp (from UniProt P49792) | 200 | – | – | – | – | – |
| cyclophilin domain from human NUP358 (from UniProt P49792 3057-3224) (domain or fragment) | – | 12.1 | 94 | – | – | – |
| cyclophilin domain from human NUP358 (from UniProt P49792) V61M; V113F | – | – | – | 1.43 | -7.45 | -5.26 |
| cyclophilin domain from human NUP358 (from UniProt P49792) V113F | – | – | – | 0.74 | -10.8 | -16.5 |

— paper PMC3750474
